Reference: the supplement of paper PMC9112550, “Optimization of the antimicrobial peptide Bac7 by deep mutational scanning” (BMC Biology, 2022)

System: Escherichia coli TOP10
Assay: shrunken log2 fold change of peptide-encoding DNA abundance (4.5 h post-induction vs induction); higher = less antimicrobial activity (less host growth inhibition)
Conditions: time post-induction: 4.5 h; library: site-saturation at positions 5, 18, 19, 20
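Further: peptides expressed intracellularly from a pBAD plasmid library in pooled LB shake-flask culture, induced with 0.3% L-arabinose, DNA abundance read by NGS, three biological replicates, DESeq2 with apeglm shrinkage.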

Row | Sequence | shrunken log2 fold change
1 | RRIRIRPPRLPRPRPRPTEFPRP | -0.408
2 | RRIRIRPPRLPRPRPRPTEKPRP | 0.0176
3 | RRIRIRPPRLPRPRPRPTFMPRP | 1.69
4 | RRIRIRPPRLPRPRPRPTHLPRP | -0.0268
5 | RRIRIRPPRLPRPRPRPTITPRP | -0.996
6 | RRIRIRPPRLPRPRPRPTKEPRP | 0.0462
7 | RRIRIRPPRLPRPRPRPTKPPRP | -0.0472
8 | RRIRIRPPRLPRPRPRPTLEPRP | 2.35
9 | RRIRIRPPRLPRPRPRPTMRPRP | 0.553
10 | RRIRIRPPRLPRPRPRPTNAPRP | -0.0508
11 | RRIRIRPPRLPRPRPRPTNMPRP | -0.427
12 | RRIRIRPPRLPRPRPRPTPCPRP | 0.598
13 | RRIRIRPPRLPRPRPRPTPLPRP | 0.245
14 | RRIRIRPPRLPRPRPRPTQGPRP | -0.104
15 | RRIRIRPPRLPRPRPRPTQSPRP | 0.575
16 | RRIRIRPPRLPRPRPRPTQWPRP | -0.136
17 | RRIRIRPPRLPRPRPRPTRWPRP | 0.242
18 | RRIRIRPPRLPRPRPRPTSDPRP | -0.245
19 | RRIRIRPPRLPRPRPRPTSKPRP | -0.207
20 | RRIRIRPPRLPRPRPRPTSNPRP | -0.807
21 | RRIRIRPPRLPRPRPRPTSVPRP | -0.18
22 | RRIRIRPPRLPRPRPRPTTMPRP | -0.394
23 | RRIRIRPPRLPRPRPRPTTTPRP | -0.00987
24 | RRIRIRPPRLPRPRPRPTVKPRP | -0.468
25 | RRIRIRPPRLPRPRPRPTVWPRP | 0.163

Row | Sequence | shrunken log2 fold change
26 | RRIRIRPPRLPRPRPRPTWMPRP | -0.306
27 | RRIRIRPPRLPRPRPRPTWPPRP | 0.368
28 | RRIRIRPPRLPRPRPRPTYNPRP | -0.783
29 | RRIRIRPPRLPRPRPRPTYQPRP | -0.715
30 | RRIRIRPPRLPRPRPRPTYTPRP | -0.405
31 | RRIRIRPPRLPRPRPRPVAPPRP | 0.244
32 | RRIRIRPPRLPRPRPRPVAYPRP | -0.0713
33 | RRIRIRPPRLPRPRPRPVCFPRP | -0.256
34 | RRIRIRPPRLPRPRPRPVDQPRP | -0.0969
35 | RRIRIRPPRLPRPRPRPVEVPRP | 0.0961
36 | RRIRIRPPRLPRPRPRPVFIPRP | -0.472
37 | RRIRIRPPRLPRPRPRPVHMPRP | -0.315
38 | RRIRIRPPRLPRPRPRPVLVPRP | 0.0259
39 | RRIRIRPPRLPRPRPRPVMNPRP | -0.61
40 | RRIRIRPPRLPRPRPRPVSHPRP | 0.113
41 | RRIRIRPPRLPRPRPRPVSPPRP | 0.188
42 | RRIRIRPPRLPRPRPRPVTSPRP | -0.0328
43 | RRIRIRPPRLPRPRPRPVVDPRP | -0.105
44 | RRIRIRPPRLPRPRPRPVWMPRP | 0.11
45 | RRIRIRPPRLPRPRPRPVWPPRP | 0.0939
46 | RRIRIRPPRLPRPRPRPVWRPRP | 0.391
47 | RRIRIRPPRLPRPRPRPVWWPRP | 0.0779
48 | RRIRIRPPRLPRPRPRPVYDPRP | -0.0144
49 | RRIRIRPPRLPRPRPRPVYNPRP | -0.314
50 | RRIRIRPPRLPRPRPRPVYTPRP | -0.346

Row | Sequence | shrunken log2 fold change
51 | RRIRIRPPRLPRPRPRPVYVPRP | -1.58
52 | RRIRIRPPRLPRPRPRPVYYPRP | -1.62
53 | RRIRIRPPRLPRPRPRPWAHPRP | -0.923
54 | RRIRIRPPRLPRPRPRPWDYPRP | -0.00975
55 | RRIRIRPPRLPRPRPRPWEAPRP | 0.0112
56 | RRIRIRPPRLPRPRPRPWENPRP | -0.00674
57 | RRIRIRPPRLPRPRPRPWEQPRP | 0.107
58 | RRIRIRPPRLPRPRPRPWFNPRP | -1.25
59 | RRIRIRPPRLPRPRPRPWGGPRP | 0.297
60 | RRIRIRPPRLPRPRPRPWHEPRP | 0.0173
61 | RRIRIRPPRLPRPRPRPWIHPRP | 2.37
62 | RRIRIRPPRLPRPRPRPWKAPRP | -0.00804
63 | RRIRIRPPRLPRPRPRPWKTPRP | -0.197
64 | RRIRIRPPRLPRPRPRPWLQPRP | 0.0391
65 | RRIRIRPPRLPRPRPRPWMMPRP | -0.178
66 | RRIRIRPPRLPRPRPRPWMYPRP | -0.184
67 | RRIRIRPPRLPRPRPRPWNQPRP | 0.00812
68 | RRIRIRPPRLPRPRPRPWNWPRP | 0.0631
69 | RRIRIRPPRLPRPRPRPWQGPRP | -0.125
70 | RRIRIRPPRLPRPRPRPWQHPRP | 0.0851
71 | RRIRIRPPRLPRPRPRPWQRPRP | -0.075
72 | RRIRIRPPRLPRPRPRPWQVPRP | 0.0844
73 | RRIRIRPPRLPRPRPRPWSIPRP | -0.211
74 | RRIRIRPPRLPRPRPRPWTNPRP | -0.00152
75 | RRIRIRPPRLPRPRPRPWTRPRP | -0.187

Row | Sequence | shrunken log2 fold change
76 | RRIRIRPPRLPRPRPRPWVSPRP | -0.119
77 | RRIRIRPPRLPRPRPRPWVWPRP | 0.414
78 | RRIRIRPPRLPRPRPRPWWHPRP | -0.218
79 | RRIRIRPPRLPRPRPRPWWMPRP | -0.0772
80 | RRIRIRPPRLPRPRPRPWYLPRP | -0.166
81 | RRIRIRPPRLPRPRPRPYAPPRP | -0.242
82 | RRIRIRPPRLPRPRPRPYDAPRP | -1.48
83 | RRIRIRPPRLPRPRPRPYEDPRP | -0.00133
84 | RRIRIRPPRLPRPRPRPYEGPRP | -0.00931
85 | RRIRIRPPRLPRPRPRPYEPPRP | -0.21
86 | RRIRIRPPRLPRPRPRPYIVPRP | -0.0153
87 | RRIRIRPPRLPRPRPRPYKLPRP | -1.04
88 | RRIRIRPPRLPRPRPRPYLAPRP | -0.941
89 | RRIRIRPPRLPRPRPRPYMHPRP | -1.32
90 | RRIRIRPPRLPRPRPRPYMSPRP | -1.19
91 | RRIRIRPPRLPRPRPRPYNEPRP | -0.0675
92 | RRIRIRPPRLPRPRPRPYNWPRP | -0.577
93 | RRIRIRPPRLPRPRPRPYPMPRP | -0.0519
94 | RRIRIRPPRLPRPRPRPYPSPRP | -0.00978
95 | RRIRIRPPRLPRPRPRPYQLPRP | -0.699
96 | RRIRIRPPRLPRPRPRPYQVPRP | -0.14
97 | RRIRIRPPRLPRPRPRPYRGPRP | -0.155
98 | RRIRIRPPRLPRPRPRPYSYPRP | -0.0485
99 | RRIRIRPPRLPRPRPRPYTWPRP | -0.891
100 | RRIRIRPPRLPRPRPRPYVGPRP | -0.384

Row | Sequence | shrunken log2 fold change
101 | RRIRIRPPRLPRPRPRPYWVPRP | 0.0603
102 | RRIRIRPPRLPRPRPRPYYYPRP | -1.08
103 | RRIRKRPPRLPRPRPRPACPPRP | 0.664
104 | RRIRKRPPRLPRPRPRPADQPRP | -0.0199
105 | RRIRKRPPRLPRPRPRPADRPRP | 0.102
106 | RRIRKRPPRLPRPRPRPAENPRP | 0.0163
107 | RRIRKRPPRLPRPRPRPAFAPRP | 0.647
108 | RRIRKRPPRLPRPRPRPAFIPRP | 0.129
109 | RRIRKRPPRLPRPRPRPAFNPRP | -0.169
110 | RRIRKRPPRLPRPRPRPAHHPRP | -0.00814
111 | RRIRKRPPRLPRPRPRPAHIPRP | -0.137
112 | RRIRKRPPRLPRPRPRPAIKPRP | 0.191
113 | RRIRKRPPRLPRPRPRPAKLPRP | 0.446
114 | RRIRKRPPRLPRPRPRPAKNPRP | 0.487
115 | RRIRKRPPRLPRPRPRPAKWPRP | 0.26
116 | RRIRKRPPRLPRPRPRPALHPRP | 0.374
117 | RRIRKRPPRLPRPRPRPAMAPRP | 0.664
118 | RRIRKRPPRLPRPRPRPAMWPRP | 0.241
119 | RRIRKRPPRLPRPRPRPASLPRP | -0.23
120 | RRIRKRPPRLPRPRPRPATFPRP | -0.0215
121 | RRIRKRPPRLPRPRPRPAVGPRP | 0.472
122 | RRIRKRPPRLPRPRPRPAVSPRP | 0.0687
123 | RRIRKRPPRLPRPRPRPAVTPRP | 0.0318
124 | RRIRKRPPRLPRPRPRPAWIPRP | 0.0453
125 | RRIRKRPPRLPRPRPRPAWYPRP | 0.205

Row | Sequence | shrunken log2 fold change
126 | RRIRKRPPRLPRPRPRPCASPRP | 0.0419
127 | RRIRKRPPRLPRPRPRPCCEPRP | 0.638
128 | RRIRKRPPRLPRPRPRPCCHPRP | -1.07
129 | RRIRKRPPRLPRPRPRPCCRPRP | 0.146
130 | RRIRKRPPRLPRPRPRPCDCPRP | -0.0743
131 | RRIRKRPPRLPRPRPRPCDHPRP | 0.0248
132 | RRIRKRPPRLPRPRPRPCDYPRP | -0.0336
133 | RRIRKRPPRLPRPRPRPCECPRP | 0.62
134 | RRIRKRPPRLPRPRPRPCGYPRP | 0.25
135 | RRIRKRPPRLPRPRPRPCHEPRP | 0.00408
136 | RRIRKRPPRLPRPRPRPCHIPRP | -0.00879
137 | RRIRKRPPRLPRPRPRPCHQPRP | 0.124
138 | RRIRKRPPRLPRPRPRPCIQPRP | 0.0636
139 | RRIRKRPPRLPRPRPRPCKPPRP | -0.00919
140 | RRIRKRPPRLPRPRPRPCKSPRP | -0.0499
141 | RRIRKRPPRLPRPRPRPCLFPRP | 0.0241
142 | RRIRKRPPRLPRPRPRPCMIPRP | 0.0302
143 | RRIRKRPPRLPRPRPRPCMPPRP | 0.0752
144 | RRIRKRPPRLPRPRPRPCNPPRP | -0.00652
145 | RRIRKRPPRLPRPRPRPCPHPRP | 0.0793
146 | RRIRKRPPRLPRPRPRPCPPPRP | 0.0811
147 | RRIRKRPPRLPRPRPRPCRAPRP | 0.57
148 | RRIRKRPPRLPRPRPRPCRLPRP | -0.298
149 | RRIRKRPPRLPRPRPRPCRMPRP | -0.00386
150 | RRIRKRPPRLPRPRPRPCRPPRP | 0.0439
